Resistance to pepsin digestion data for one substance are collected here from patent US6472171.

For the assay, the target named is human α2(I) procollagen (human) (UniProt P08123). Nature of the assay: cell-based or functional assay.
Chain of human α2(I) procollagen (human) (P08123 23-1366 limits assumed): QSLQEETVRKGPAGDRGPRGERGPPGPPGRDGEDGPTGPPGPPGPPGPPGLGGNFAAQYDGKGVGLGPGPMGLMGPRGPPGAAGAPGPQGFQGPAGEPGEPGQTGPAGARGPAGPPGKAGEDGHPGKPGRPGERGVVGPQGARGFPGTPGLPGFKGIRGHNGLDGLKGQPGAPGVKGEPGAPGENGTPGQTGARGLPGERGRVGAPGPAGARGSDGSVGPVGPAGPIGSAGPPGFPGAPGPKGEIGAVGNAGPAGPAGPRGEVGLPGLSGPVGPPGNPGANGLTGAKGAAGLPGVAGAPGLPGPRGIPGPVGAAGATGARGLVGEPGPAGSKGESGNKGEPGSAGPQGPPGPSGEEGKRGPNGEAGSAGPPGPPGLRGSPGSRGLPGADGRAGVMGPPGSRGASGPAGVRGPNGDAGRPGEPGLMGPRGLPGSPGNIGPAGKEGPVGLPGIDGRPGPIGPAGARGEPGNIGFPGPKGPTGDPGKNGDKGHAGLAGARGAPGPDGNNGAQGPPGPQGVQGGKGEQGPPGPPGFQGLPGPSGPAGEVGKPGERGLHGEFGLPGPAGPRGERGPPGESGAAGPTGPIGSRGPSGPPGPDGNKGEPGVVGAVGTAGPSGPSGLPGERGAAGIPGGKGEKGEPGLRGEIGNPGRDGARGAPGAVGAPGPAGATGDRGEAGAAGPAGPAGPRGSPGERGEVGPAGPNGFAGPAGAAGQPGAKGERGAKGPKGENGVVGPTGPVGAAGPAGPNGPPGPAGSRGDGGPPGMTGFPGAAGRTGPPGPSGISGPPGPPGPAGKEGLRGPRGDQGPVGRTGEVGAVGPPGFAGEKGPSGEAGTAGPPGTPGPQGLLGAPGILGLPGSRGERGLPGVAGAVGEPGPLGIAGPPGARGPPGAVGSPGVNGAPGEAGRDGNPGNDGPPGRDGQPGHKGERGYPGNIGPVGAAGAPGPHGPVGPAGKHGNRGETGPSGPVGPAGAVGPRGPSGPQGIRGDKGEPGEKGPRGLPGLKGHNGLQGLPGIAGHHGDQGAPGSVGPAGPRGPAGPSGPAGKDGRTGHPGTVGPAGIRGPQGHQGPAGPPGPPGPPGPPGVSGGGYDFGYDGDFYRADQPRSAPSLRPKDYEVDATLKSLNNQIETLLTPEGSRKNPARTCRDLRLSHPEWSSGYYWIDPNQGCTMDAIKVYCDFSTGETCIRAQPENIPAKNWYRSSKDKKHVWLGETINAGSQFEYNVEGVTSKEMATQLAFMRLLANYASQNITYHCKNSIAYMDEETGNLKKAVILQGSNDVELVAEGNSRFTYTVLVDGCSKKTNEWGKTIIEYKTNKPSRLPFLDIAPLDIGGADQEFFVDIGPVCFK

In the case of “human α1(I) procollagen (from UniProt P02452 23-1464)”, the resistance to pepsin digestion at increasing temperatures (SDS-PAGE) was 38 ° C.
